In patent US20260263614A1, “ANTIBODY DRUG CONJUGATES THAT BIND CDCP1 AND USES THEREOF” (Pheon Therapeutics Ltd, priority 2022, published 2026):
Where two headings read alike, the source gives them in different places.

Assays:
[1] = tested on: HexA and MS1 DNA fragments; experiment: DNA footprinting; assay type: binding
Procedure: Footprinting reactions were performed as using previously described methods using the DNA fragments HexA and HexB, which together contain all 64 symmetrical hexanucleotide sequences, and MS1 that contains all possible […] tetranucleotide sequences. The DNA fragments were obtained by cutting the parent plasmids with HindIII and SacI (for HexA and MS1) or EcoRI and PstI (for HexB), and were labelled at the 3′-end of the HindIII or EcoRI sites with [α-^32P]dATP using reverse transcriptase or exo-Klenow fragment. After gel purification, the radiolabelled DNA was dissolved in 10 mM Tris-HCl pH 7.5 containing 0.1 mM EDTA, at a concentration of about 10 c.p.s per μL as determined on a hand held Geiger counter. 1.5 μL of radiolabelled DNA was mixed with 1.5 μL ligand that had been freshly diluted in 10 mM Tris-HCl pH 7.5, containing 10 mM NaCl. The complexes were left to equilibrate for at least 12 hours before digesting with 2 μL DNase I (final concentration about 0.01 units/mL). The reactions were stopped after 1 minute by adding 4 μL of formamide containing 10 mM EDTA and bromophenol blue (0.1% w/v). The samples were then heated at 100° C. for 3 minutes before loading onto 8% denaturing polyacrylamide gels containing 8 M urea. Gels were fixed in 10% acetic acid, transferred to 3 MM paper, dried and exposed to a phosphor screen overnight, before analysing with a Typhoon phosphorimager
The DNA sequence selectivity profile of the molecules was investigated using a modification of a previously established DNA footprinting assay. Following an overnight incubation of the ligand-DNA complexes, the mixture was mixed with strand separation buffer containing 10 mM EDTA, 10 mM NaOH, 0.1% bromophenol blue, 80% formamide and incubated at 100° C. for 3 min. The mixture was then immediately cooled on ice and run on an 8% denaturing gel. […] The possible adducts formed within the HexA sequences are shown in FIGS. 20 and 21, respectively.

[2] = tested on: linear double-stranded TyrT fragment; experiment: DNA cross-linking assay; assay type: biochemical
Procedure: The preparation of the TyrT DNA fragment has been previously described. Briefly, the sequence which had been cloned into the BamHI site of pUC18 was obtained by cutting with HindIII and EcoRI. Radiolabelled DNA fragments were prepared by filling in the 3′-end of the HindIII site with [α-^32P]dATP using Klenow DNA polymerase (exo-).
The radiolabelled DNA fragment was separated from the remainder of the plasmid DNA on a 6% non-denaturing polyacrylamide gel. The gel (20 cm long, 0.3 mm thick) was run at 400 V in 1×TBE running buffer for about 1-2 h, until the bromophenol blue had run most of the way down the gel. The glass plates were separated and the position of the labelled DNA fragment was established by short (1 min) exposure to an X-ray film. The relevant band was then cut from the gel and the radiolabelled DNA eluted by adding 300 μL 10 mM Tris-HCl, pH 7.5 containing 0.1 mM EDTA and gently agitating overnight at room temperature. The eluted DNA was finally precipitated with ethanol and re-suspended in a suitable volume of 10 mM Tris-HCl, pH 7.5 containing 0.1 mM EDTA buffer so as to give at least 10 counts per second/μL on a hand-held Geiger counter. With fresh plasmid and α-^32P-dATP this process typically generated about 150 μL of radiolabelled fragment DNA. The absolute concentration of the DNA is not important, and it is typically lower than 10 nM.
Radiolabelled DNA ([…]) was mixed with 1.5 μL ligand solution of various concentrations (10 μM-10 nM) and incubated overnight at 37° C.
After overnight incubation, the samples were mixed with 7 μL loading solution (80% formamide containing 10 mM EDTA, 10 mM NaOH, 0.1% bromophenol blue) and incubated at 65° C. for 5 min. Control 1 (C1) for native double-stranded DNA consisted of 1.5 μL labelled DNA, 1.5 μL 10 mM Tris-HCl, pH 7.5 containing 0.1 mM EDTA and 7 μL 1× loading dye. […]
The ability of 26 to cross-link DNA was evaluated using an assay involving a linear double-stranded TyrT fragment (FIG. 17). […]

[3] = Comparative repeat-dose rat toxicity study; assay type: in vivo; conditions: DAR 8 on a Trastuzumab backbone; IV once every 3 weeks, two doses, 20 or 60 mg/kg
[4] = biological target: T1, huCDCP1(F30-T667 Q525)-8×His_T3 (human, UniProt Q9H5V8 30-667); experiment: SPR, huCDCP1(F30-T667 Q525)-8×His_T3 as analyte; mAb lot T14
T1 construct: The construct name gives the limits F30-T667 and Q525; also called recombinant CDCP1 ECD; CDCP1 ECD

[5] = biological target: T2, CDCP1 on antigen-positive cells (A427; CDCP1+ cells MDA-MB-468, PC3, DU145) (Homo sapiens (Human), UniProt Q9H5V8 30-836, On the FIG. 45 cell lines, part of the CDCP1 is proteolytically cleaved in the extracellular domain; the cleavage site is not stated. The uncleaved mature protein is given.); experiment: binding to CDCP1+ cells (cell line not given), % Maximum against log concentration, fitted curve
T2 construct: also called the antigen; antigen positive cell-line (A427)

[6] = biological target: T2, CDCP1 on antigen-positive cells (A427; …); experiment: as above; remark: listed apart in the source
[7] = biological target: T2, CDCP1 on antigen-positive cells (A427; …); experiment: flow cytometry on MDA-MB-468 cells (CDCP1+ cleavage), channel R712-A

Q: Which “DNA-binding site (X any base, W adenine or thymine)” value [1] does the source give for `C=CCOC(=O)N1c2cc(OCCCC(=O)Nc3cc(C(=O)Nc4ccc(NC(=O)C(F)(F)F)cc4)n(C)c3)c(OC)cc2C(=O)N2CCCC[C@H]2C1OC1CCCCO1` (stereo partly drawn) [Compound 17, Allyl (6aS)-2-methoxy-3-(4-((1-methyl-5-((4-(2,2,2-trifluoroacetamido)phenyl)carbamoyl)-1H-pyrrol-3-yl)amino)-4-oxobutoxy)-12-oxo-6-((tetrahydro-2H-pyran-2-yl)oxy)-6,6a,7,8,9,10-hexahydrobenzo[e]pyrido[1,2-a][1,4]diazepine-5(12H)-carboxylate] here?
A: XGXWWWW

Q: For `COc1cc2c(cc1OCCCC(=O)Nc1cc(C(=O)Nc3ccc(N)cc3)n(C)c1)N=C[C@@H]1CCCCN1C2=O` [Compound 19, (S)—N-(4-Aminophenyl)-4-(4-((2-methoxy-12-oxo-6a,7,8,9,10,12-hexahydrobenzo[e]pyrido[1,2-a][1,4]diazepin-3-yl)oxy)butanamido)-1-methyl-1H-pyrrol-2-carboxamide], which “ability to cross-link DNA (conclusion)” value [2] is on record?
A: incapable of cross-linking DNA

Q: For `COc1cc2c(cc1OCCCC(=O)Nc1cc(C(=O)Nc3ccc(-c4cc(C(=O)Nc5ccc(N)cc5)n(C)c4)cc3)n(C)c1)N=C[C@@H]1CCCCN1C2=O` [Compound 26, (S)—N-(4-aminophenyl)-4-(4-(4-(4-((2-methoxy-12-oxo-6a,7,8,9,10,12-hexahydrobenzo[e]pyrido[1,2-a][1,4]diazepin-3-yl)oxy)butanamido)-1-methyl-1H-pyrrol-2-carboxamido)phenyl)-1-methyl-1H-pyrrol-2-carboxamide], which “ability to cross-link DNA (conclusion)” value [2] is on record?
A: incapable of cross-linking DNA

Q: What about the DNA interstrand cross-links ([2]; six concentrations, overnight incubation at 37° C., denaturing gel) of the same molecule?
A: not detectable at any concentration

Q: What about the “DNA stabilisation and sequence selectivity (biophysical summary)” value [1] of the same molecule?
A: effectively stabilises DNA with a high degree of sequence-specificity

Q: And the “DNA-binding site (X any base, W adenine or thymine)” value [1]?
A: XGXWWWW

Q: What about the “footprints (preferred sites) on HexA” value ([1]; overnight incubation of ligand-DNA complexes) of the same molecule?
A: only five preferred sites

Q: For `CC[C@@]1(O)C(=O)OCc2c1cc1n(c2=O)Cc2c-1nc1cc(F)c(C)c3c1c2[C@@H](NC(=O)CO)CC3` [Dxd, reference compound], which tolerability [3] is on record?
A: well tolerated

B1: CDCP1-vcMMAE (DAR of 4) (antibody, V domains shown)
VH: EVQLLESGGGLVQPGGSLRLSCAASGFTFSNYAMNWVRQAPGKGLEWVSAISGGGGSTYYADSVKGRFTISRDNSKNTLYLQMNSLRAEDTAVYYCAKESITMVRGVMDYYGMDVWGQGTTVTVSS
VL: DIQLTQSPSFLSASVGDRVTITCRASQGISSYLAWYQQKPGKAPKLLIYAASTLQGGVPSRFSGSGSGTEFTLTISSLQPEDFATYYCQHLNRFPRTFGQGTKVEIK
modifications: vc-MMAE (Val-Cit linker, monomethyl auristatin E) conjugated to the antibody, DAR of 4; sites not stated
notes: also called CDCP1-MMAE
Q: Which results are given for B1?
A: Kd [4]: 0.604 nM; koff [4]: 0.00038 s⁻¹; kon [4]: 629000 M⁻¹ s⁻¹; EC50 [5]: 0.384 µg/mL

B2: ADC3 (CDCP1 mAb conjugated to compound 30, DAR of 8) (antibody, IgG1, V domains shown)
VH: EVQLLESGGGLVQPGGSLRLSCAASGFTFSNYAMNWVRQAPGKGLEWVSAISGGGGSTYYADSVKGRFTISRDNSKNTLYLQMNSLRAEDTAVYYCAKESITMVRGVMDYYGMDVWGQGTTVTVSS
VL: DIQLTQSPSFLSASVGDRVTITCRASQGISSYLAWYQQKPGKAPKLLIYAASTLQGGVPSRFSGSGSGTEFTLTISSLQPEDFATYYCQHLNRFPRTFGQGTKVEIK
modifications: compound 30 (Mal-amido-PEG8-Val-Ala-exatecan) conjugated stochastically to reduced cysteines of the IgG1, average DAR 7.3 (called DAR of 8); sites not stated
notes: also called CDCP1-targeted exatecan conjugate
Q: What does the source list for B2?
A: EC50 [6]: 0.16 µg/mL; Kd [4]: 0.57 nM; koff [4]: 0.000422 s⁻¹; kon [4]: 740000 M⁻¹ s⁻¹

B3: ADC2 (CDCP1 mAb conjugated to compound 20, DAR of 4) (antibody, IgG1, V domains shown)
VH: EVQLLESGGGLVQPGGSLRLSCAASGFTFSNYAMNWVRQAPGKGLEWVSAISGGGGSTYYADSVKGRFTISRDNSKNTLYLQMNSLRAEDTAVYYCAKESITMVRGVMDYYGMDVWGQGTTVTVSS
VL: DIQLTQSPSFLSASVGDRVTITCRASQGISSYLAWYQQKPGKAPKLLIYAASTLQGGVPSRFSGSGSGTEFTLTISSLQPEDFATYYCQHLNRFPRTFGQGTKVEIK
modifications: compound 20 (maleimide-Val-Ala-PDD linker-payload) conjugated stochastically to reduced cysteines of the IgG1, average DAR 4.2; sites not stated
Q: With B3 as the molecule, how does the Kd [4] read?
A: 0.635 nM

Q: What about the koff [4] of the same molecule?
A: 0.000374 s⁻¹

Q: And the kon [4]?
A: 589000 M⁻¹ s⁻¹

B4: ADC4 (CDCP1 mAb conjugated to compound 30, DAR of 4) (antibody, IgG1, V domains shown)
VH: EVQLLESGGGLVQPGGSLRLSCAASGFTFSNYAMNWVRQAPGKGLEWVSAISGGGGSTYYADSVKGRFTISRDNSKNTLYLQMNSLRAEDTAVYYCAKESITMVRGVMDYYGMDVWGQGTTVTVSS
VL: DIQLTQSPSFLSASVGDRVTITCRASQGISSYLAWYQQKPGKAPKLLIYAASTLQGGVPSRFSGSGSGTEFTLTISSLQPEDFATYYCQHLNRFPRTFGQGTKVEIK
modifications: compound 30 (Mal-amido-PEG8-Val-Ala-exatecan) conjugated stochastically to reduced cysteines of the IgG1, average DAR 4; sites not stated
Q: Which Kd [4] does the source give for B4 here?
A: 0.604 nM

Q: What about the koff [4] of the same molecule?
A: 0.000401 s⁻¹

Q: What about the kon [4] of the same molecule?
A: 663000 M⁻¹ s⁻¹

B5: mAbs-CDCPA1 Sequence 2 (anti-CDCP1 antibody, Sequence 2) (antibody, V domains shown)
VH: QVQLVQSGAEVKKPGSSVKVSCKASGGTFSSYAMSWVRQAPGQGLEWMGGIIPILGTTNYAQKFQGRVTITADKSTSTAYMELSSLRSEDTAVYYCAREGLYAFDIWGQGTMVTVSS
VL: DIQMTQSPSSLSASVGDRVTITCRASQSISSYLNWYQQKPGKAPKFLIYVASSLQSGVPSRFSGRGSGTDFTLTISSLQPEDFATYYCQQSYSTPWTFGQGTKVEIK
Q: Does B5 bind [7]?
A: binds
